As usually defined, the Kd is the free concentration of one partner at which half of the binding sites on the other are occupied at equilibrium, for simple one-to-one binding.

The target in series [1] is GFP-WT-SAP (SAF-A SAP domain) (UniProt Q00839). In words: EMSA. A general note: A gel shift assay detects complexes by their altered migration in electrophoresis.
Series [2] has as its target GFP-S14D S26D-SAP (phosphomimetic SAF-A SAP domain) (UniProt Q00839). Description: EMSA.

In the case of “AATTCAGAAAATAATAAAATAAAACTAGCTATTTTATATTTTTTC (double strand) [AT-rich SAR DNA]”, the dissociation constant (Kd) in series [1] was 16.5 µM; in series [2] it was > 75 µM.

For the origin of these results see paper doi:10.1101/813527.
